In test [1] the target is T1, cynomolgus (cyno) PD-L1/His fusion protein (cynomolgus, UniProt G7PSE7 19-239).
T1 construct: also called cynomolgus PD-L1; not shown: His tag
Kind of test: ELISA, scFv supernatant on cynomolgus PD-L1. (ELISA stands for enzyme-linked immunosorbent assay.)

The target of test [2] is human PD-L1/Fc Fusion Protein (human). Kind of test: ELISA, scFv supernatant on coated human PD-L1/Fc. The procedure: Two hundred (200) single bacterial clones from each group of the third panning round were isolated and grown in culture to express a single scFv monoclonal antibodies (mAbs). The scFv mAbs were expressed in the bacterial culture supernatants, which were primarily screened by ELISA. […] 20 ng of human PD-L1/Fc protein in 100 μL PBS, pH 7.4, were directly coated in each well of a 96-well plate. An HRP-linked anti-c-myc antibody (Cat. No. Ab1261, Abcam) and TMB reagent were used to detect and develop the ELISA signal, which was read using a plate reader (SpectraMax® Plus 384; Molecular Devices) at a wavelength of 450 nm.

The target of test [3] is T2, human PD-L1/His fusion protein (human, UniProt Q9NZQ7 19-239). Kind of test: RBA ELISA: coated PD-L1/His, competitor biotinylated PD-1/Fc. How it is done:
Anti-PD-L1 scFv supernatants were tested for ability to block PD-L1/PD-1 interaction. […] The mixtures were added to individual wells and incubated at room temperature for 30 minutes. […] Bound signal was developed by Streptavidin-HRP (Cat. No. S2468, Sigma) and read by a plate reader at a wavelength of 450 nm. A low signal, as with the positive control, indicated blocking activity.

Test [4] deals with T3, human PD-L1 on the cell surface (CHO-K1 cells stably expressing human PD-L1) (human, UniProt Q9NZQ7 19-290).
T3 construct: whole, on cells; Also used here for PD-L1 on the monocyte-derived dendritic cells of the MLR assay (functional rows); also called CHO-K1/PD-L1; CHOK1-PD-L1
Kind of test: FACS, scFv-phage on CHO-K1/PD-L1 cells. How it is done: After characterization of ability to bind PD-L1 in ELISA and RBA ELISA, the PD-L1-binding positive scFv clones were sequenced. […] Briefly, 2×10⁵ cells of the CHO-K1/PD-L1 cell line stably expressing huPD-L1 described above were added to round-bottom wells of a 96-well plate (Cat. No. 3799, Corning). A phage supernatant from an overnight culture that had been rescued by hyper phage was added. The mixture of CHO-K1/PD-L1 cells and phage supernatant in each well was diluted with 50 μl of FACS buffer (PBS with 2% FBS). The anti-PD-L1 scFv-phages were detected with murine anti-M13 phage antibody (Cat. No. 11973-MM05, Sino biological) and then with Donkey anti-Mouse IgG (H+L) Highly Cross-Adsorbed, Alexa Fluor® 488 conjugate, secondary antibody (Cat. No. A21202, Invitrogen). Cell fluorescence was monitored using a flow cytometer.
In general terms: Flow cytometry measures light scatter and fluorescence of single cells or particles in a stream.

The target in test [5] is T2, human PD-L1/His fusion protein. Kind of test: BLI Octet RED96, single concentration of human PD-L1-his. The procedure:
Briefly, antibodies were characterized for affinities and binding kinetics by biolayer interferometry (BLI) using an Octet® RED96 sensor device (Pall ForteBio LLC). Antibodies were captured by anti-hIgG Fc Capture (AHC) Biosensors (Pall) at a concentration of 100 nM for 30 seconds. Sensors were then dipped into running buffer (1×, pH7.2, PBS, 0.05% Tween 20, 0.1% BSA) for 60 seconds to check baseline. Binding was measured by dipping sensors into a single concentration of recombinant human PD-L1-his protein. Dissociation was followed by dipping sensors into running buffer for 1200 seconds. The association and dissociation curves were fitted to a 1:1 Langmuir binding model using the manufacturer's data analysis software (ForteBio Data Analysis software, Pall ForteBio LLC).
For orientation: In BLI a coated tip is dipped into the sample, and binding shifts an interference pattern.

Usually EC50 stands for the midpoint of the concentration-response curve. By koff is commonly meant the first-order rate constant of dissociation. Higher therefore signals a short-lived complex.

T2 sequence (Q9NZQ7 19-239 limits assumed): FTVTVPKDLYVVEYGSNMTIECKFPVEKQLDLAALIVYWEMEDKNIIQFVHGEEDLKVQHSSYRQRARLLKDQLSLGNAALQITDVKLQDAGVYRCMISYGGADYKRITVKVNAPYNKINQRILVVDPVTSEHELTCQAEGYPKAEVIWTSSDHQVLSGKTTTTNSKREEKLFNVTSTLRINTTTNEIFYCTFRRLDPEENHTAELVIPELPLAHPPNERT
T3 sequence (Q9NZQ7 19-290): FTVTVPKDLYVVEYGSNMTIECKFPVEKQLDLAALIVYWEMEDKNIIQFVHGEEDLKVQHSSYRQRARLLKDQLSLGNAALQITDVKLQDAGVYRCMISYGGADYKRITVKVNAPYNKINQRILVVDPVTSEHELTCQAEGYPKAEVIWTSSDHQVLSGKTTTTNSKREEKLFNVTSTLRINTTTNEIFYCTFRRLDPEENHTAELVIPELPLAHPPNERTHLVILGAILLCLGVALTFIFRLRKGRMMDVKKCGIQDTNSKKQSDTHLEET
human PD-L1/Fc Fusion Protein (human), sequence (chain, as listed by the source limits assumed): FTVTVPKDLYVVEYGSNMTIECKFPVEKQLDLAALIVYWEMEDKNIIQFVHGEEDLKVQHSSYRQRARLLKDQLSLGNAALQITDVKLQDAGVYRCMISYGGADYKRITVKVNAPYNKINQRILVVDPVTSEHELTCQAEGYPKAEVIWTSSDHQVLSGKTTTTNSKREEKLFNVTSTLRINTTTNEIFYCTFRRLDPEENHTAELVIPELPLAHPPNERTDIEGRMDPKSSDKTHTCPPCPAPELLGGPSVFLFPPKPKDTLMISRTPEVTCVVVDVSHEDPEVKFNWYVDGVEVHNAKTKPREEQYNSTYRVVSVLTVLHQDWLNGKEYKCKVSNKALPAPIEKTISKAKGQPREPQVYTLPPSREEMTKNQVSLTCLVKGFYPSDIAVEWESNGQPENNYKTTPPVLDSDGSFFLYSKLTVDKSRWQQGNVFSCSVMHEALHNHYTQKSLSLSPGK
T1 sequence (G7PSE7 entry or part of it): as the sequence (Q9NZQ7 19-239 limits assumed) above, with A33T, A34S, S62N, R68Q, Q82R, F173L, T185A, T192I, H215L counted along it

B1: EM0005-mAb87 scFv (scFv)
scFv: EVQLQQSGPELVKPGASVKISCKASGYSFTDYYINWVKQSPEKSLEWIGETIPNTGGTTYNQKFKAKATLTVDKSSSTAYMQLKSLTSEDSAVYYCARYQSGSPFAYWGQGTPVTVSSGGGGSGGGGSGGGGSDIVMTQSQKFMSTTVGDRVSITCKASQNVGTAVAWYQQKPGQSPKLLIYSASNRYTGVPDRFTGSGSGTDFTLTISNMQSEDLADYFCQQHYSTPYTFGGGTKLEIK
notes: Tested as bacterial culture supernatant and as scFv-displaying phage in FACS; tags of the pCAN phagemid not spelled out for library clones; also called 4E8
Turning to B1, the EC50 in test [1] came to 4 nM; in test [2], 3.02 nM. Further, in test [3], the “RBA (% inhibition)” value is 99.8%. Besides, in test [4], the “Binding to CHOK1-PD-L1 (X Geo Mean)” value stood at 49.7. Also, the off-rate (koff) in test [5] was 0.000206 s⁻¹.

B2: EM0005-mAb86 scFv (scFv)
scFv: QVQLQQSGAELVRPGSSVKMSCKTSGYTFTTYGINWVKQRPGQGLEWIGYIYIGNGYTEYNEKFKGKATLTSDPSSRTAYMQLSSLTSEDSAIYFCARDLMVIAPKTMDYWGQGTSVTVSSGGGGSGGGGSGGGGSDIQMNQSHKFMSTSVGDRVSITCKASQDVGTAVAWYQQKPGQSPKLLIYWASTRHTGVPDRFTGGGSGTDFTLTISNVQSEDLADYFCQQYSSYPYTFGGGTKLEMK
notes: Tested as bacterial culture supernatant (detected with anti-c-myc antibody; tags of the pCAN phagemid not spelled out for library clones) and as scFv-displaying phage in FACS; also called 3A3
B2: the EC50 is 4 nM in test [1] and 1.19 nM in test [2]. The “RBA (% inhibition)” value in test [3] came out at 100%. Further, the “Binding to CHOK1-PD-L1 (X Geo Mean)” value in test [4] was determined as 27.6. In addition, the koff in test [5] came to 0.000197 s⁻¹.

For the origin of these results see patent publication US20230242675A1 (SHANGHAI EPIMAB BIOTHERAPEUTICS, published 2023).
